Columns and labels:
[1] = biological target: (RBD(319-541)-CHO)2 (SARS-CoV-2) (UniProt P0DTC2); experiment: SDS-PAGE
[2] = biological target: RBD(319-541)-HEK_A3 (SARS-CoV-2) (UniProt P0DTC2); experiment: SDS-PAGE

| Substance | stoichiometry N [1] | percent of the preparation as dimer [2] [%] | stoichiometry N [2] |
| --- | --- | --- | --- |
| (RBD(319-541)-CHO)2 (from UniProt P0DTC2 319-541) (domain or fragment) | 2 |  |  |
| RBD(319-541)-HEK_A3 (from UniProt P0DTC2 319-541) (domain or fragment) |  | 13 | 2 |

Source: article doi:10.1101/2021.05.10.443404
